B1: XENP23930 (29B11, bottle-opener) (antibody)
chain 1: EVQLLESGGGLVQPGGSLRLSCAASGFTFSSYAMSWVRQAPGKGLEWVSAIIGSGGITYYADSVKGRFTISRDNSKNTLYLQMNSLRAEDTAVYYCAKGWFGGFNYWGQGTLVTVSSASTKGPSVFPLAPSSKSTSGGTAALGCLVKDYFPEPVTVSWNSGALTSGVHTFPAVLQSSGLYSLSSVVTVPSSSLGTQTYICNVNHKPSDTKVDKKVEPKSCDKTHTCPPCPAPPVAGPSVFLFPPKPKDTLMISRTPEVTCVVVDVKHEDPEVKFNWYVDGVEVHNAKTKPREEEYNSTYRVVSVLTVLHQDWLNGKEYKCKVSNKALPAPIEKTISKAKGQPREPQVYTLPPSREEMTKNQVSLTCDVSGFYPSDIAVEWESDGQPENNYKTTPPVLDSDGSFFLYSKLTVDKSRWEQGDVFSCSVMHEALHNHYTQKSLSLSPGK
chain 2: not shown
chain 3: EIVLTQSPGTLSLSPGERATLSCRASQSVTSSYLAWYQQKPGQAPRLLINVGSRRATGIPDRFSGSGSGTDFTLTISRLEPEDFAVYYCQQGIMLPPTFGQGTKVEIKRTVAAPSVFIFPPSDEQLKSGTASVVCLLNNFYPREAKVQWKVDNALQSGNSQESVTEQDSKDSTYSLSSTLTLSKADYEKHKVYACEVTHQGLSSPVTKSFNRGEC
B2: XENP23932 (29B11, central-scFv) (antibody)
chain 1: B1 chain 1
chain 2: EVQLLESGGGLVQPGGSLRLSCAASGFTFSSYAMSWVRQAPGKGLEWVSAIIGSGGITYYADSVKGRFTISRDNSKNTLYLQMNSLRAEDTAVYYCAKGWFGGFNYWGQGTLVTVSSASTKGPSVFPLAPSSKSTSGGTAALGCLVKDYFPEPVTVSWNSGALTSGVHTFPAVLQSSGLYSLSSVVTVPSSSLGTQTYICNVNHKPSNTKVDKKVEPKSCGGGGSGGGGSEVQLVESGGGLVQPGGSLRLSCAASGFTFSTYAMNWVRQAPGKGLEWVGRIRSKYNNYATYYADSVKGRFTISRDDSKNTLYLQMNSLRAEDTAVYYCVRHGNFGDSYVSWFAYWGQGTLVTVSSGKPGSGKPGSGKPGSGKPGSQAVVTQEPSLTVSPGGTVTLTCGSSTGAVTTSNYANWVQQKPGKSPRGLIGGTNKRAPGVPARFSGSLLGGKAALTISGAQPEDEADYYCALWYSNHWVFGGGTKLTVLGGGGSGGGGSKTHTCPPCPAPPVAGPSVFLFPPKPKDTLMISRTPEVTCVVVDVKHEDPEVKFNWYVDGVEVHNAKTKPREEQYNSTYRVVSVLTVLHQDWLNGKEYKCKVSNKALPAPIEKTISKAKGQPREPQVYTLPPSREQMTKNQVKLTCLVKGFYPSDIAVEWESNGQPENNYKTTPPVLDSDGSFFLYSKLTVDKSRWQQGNVFSCSVMHEALHNHYTQKSLSLSPGK
chain 3: B1 chain 3
B3: XENP23934 (3F2, bottle-opener) (antibody)
chain 1: not shown
chain 2: not shown
chain 3: B1 chain 3
B4: XENP24011 (sibrotuzumab, central-scFv) (antibody)
chain 1: QVQLVQSGAEVKKPGASVKVSCKTSRYTFTEYTIHWVRQAPGQRLEWIGGINPNNGIPNYNQKFKGRVTITVDTSASTAYMELSSLRSEDTAVYYCARRRIAYGYDEGHAMDYWGQGTLVTVSSASTKGPSVFPLAPSSKSTSGGTAALGCLVKDYFPEPVTVSWNSGALTSGVHTFPAVLQSSGLYSLSSVVTVPSSSLGTQTYICNVNHKPSDTKVDKKVEPKSCDKTHTCPPCPAPPVAGPSVFLFPPKPKDTLMISRTPEVTCVVVDVKHEDPEVKFNWYVDGVEVHNAKTKPREEEYNSTYRVVSVLTVLHQDWLNGKEYKCKVSNKALPAPIEKTISKAKGQPREPQVYTLPPSREEMTKNQVSLTCDVSGFYPSDIAVEWESDGQPENNYKTTPPVLDSDGSFFLYSKLTVDKSRWEQGDVFSCSVMHEALHNHYTQKSLSLSPGK
chain 2: QVQLVQSGAEVKKPGASVKVSCKTSRYTFTEYTIHWVRQAPGQRLEWIGGINPNNGIPNYNQKFKGRVTITVDTSASTAYMELSSLRSEDTAVYYCARRRIAYGYDEGHAMDYWGQGTLVTVSSASTKGPSVFPLAPSSKSTSGGTAALGCLVKDYFPEPVTVSWNSGALTSGVHTFPAVLQSSGLYSLSSVVTVPSSSLGTQTYICNVNHKPSNTKVDKKVEPKSCGGGGSGGGGSEVQLVESGGGLVQPGGSLRLSCAASGFTFSTYAMNWVRQAPGKGLEWVGRIRSKYNNYATYYADSVKGRFTISRDDSKNTLYLQMNSLRAEDTAVYYCVRHGNFGDSYVSWFAYWGQGTLVTVSSGKPGSGKPGSGKPGSGKPGSQAVVTQEPSLTVSPGGTVTLTCGSSTGAVTTSNYANWVQQKPGKSPRGLIGGTNKRAPGVPARFSGSLLGGKAALTISGAQPEDEADYYCALWYSNHWVFGGGTKLTVLGGGGSGGGGSKTHTCPPCPAPPVAGPSVFLFPPKPKDTLMISRTPEVTCVVVDVKHEDPEVKFNWYVDGVEVHNAKTKPREEQYNSTYRVVSVLTVLHQDWLNGKEYKCKVSNKALPAPIEKTISKAKGQPREPQVYTLPPSREQMTKNQVKLTCLVKGFYPSDIAVEWESNGQPENNYKTTPPVLDSDGSFFLYSKLTVDKSRWQQGNVFSCSVMHEALHNHYTQKSLSLSPGK
chain 3: not shown

Columns and labels:
[1] = molecular target: T1, Cyno FAP; assay: Octet
T1 chain: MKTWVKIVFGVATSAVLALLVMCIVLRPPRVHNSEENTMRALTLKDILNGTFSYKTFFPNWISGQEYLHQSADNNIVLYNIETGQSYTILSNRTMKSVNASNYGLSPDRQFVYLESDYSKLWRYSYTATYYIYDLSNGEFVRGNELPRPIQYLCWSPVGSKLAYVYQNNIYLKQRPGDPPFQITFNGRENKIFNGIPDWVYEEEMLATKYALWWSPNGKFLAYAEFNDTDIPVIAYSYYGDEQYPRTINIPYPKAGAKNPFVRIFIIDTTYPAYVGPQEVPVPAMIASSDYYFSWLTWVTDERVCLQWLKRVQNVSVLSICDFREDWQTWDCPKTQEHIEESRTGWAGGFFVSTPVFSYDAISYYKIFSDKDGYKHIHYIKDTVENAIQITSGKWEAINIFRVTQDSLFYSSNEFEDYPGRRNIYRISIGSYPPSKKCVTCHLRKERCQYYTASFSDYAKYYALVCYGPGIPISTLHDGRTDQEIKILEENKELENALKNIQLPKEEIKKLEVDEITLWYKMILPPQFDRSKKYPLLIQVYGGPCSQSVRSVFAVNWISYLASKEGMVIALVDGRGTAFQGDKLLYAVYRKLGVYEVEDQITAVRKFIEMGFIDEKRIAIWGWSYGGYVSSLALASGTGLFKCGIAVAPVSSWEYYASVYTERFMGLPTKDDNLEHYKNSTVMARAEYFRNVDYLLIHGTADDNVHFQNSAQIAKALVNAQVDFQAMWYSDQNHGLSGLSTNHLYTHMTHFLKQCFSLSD

[2] = molecular target: T2, His-tagged human FAP (human, UniProt Q12884 26-760); assay: Octet
[3] = molecular target: T1, Cyno FAP; assay: Octet; apparent KD
[4] = molecular target: T2, His-tagged human FAP; assay: Octet; apparent KD

Binder | Kd [1] | Kd [2] | Kd [3] | Kd [4]
B1 | 0.0264 nM | 0.00482 nM | – | –
B2 | – | – | 0.0229 nM | < 0.001 nM
B3 | 3.16 nM | 5.46 nM | – | –
B4 | – | – | 0.0149 nM | 0.0308 nM
